This note sets out measurements from paper PMC12145522.

As a reminder, the Kd is the constant that tells how readily two partners part at equilibrium. A low value points to a tighter complex.

In assay [1] the target is GST tagged TrpR2 (Pseudomonas syringae pv. actinidiae M228). The assay can be described thus: MST.
For assay [2], the target named is RNAP-HrpL holoenzyme (His-tagged) (Pseudomonas syringae pv. actinidiae | not stated) (UniProt P37929). Nature of the assay: MST; RNAP-HrpL holoenzyme labelled with RED-Tris-NTA, 50 nM, titrated with GST-TrpR2 from 0.38 nM to 25 μM; MST buffer; 25℃; Monolith NT.115, medium MST power, 90 % LED power; triplicate.
Chain of UniProt P37929 (P37929 whole entry, looked up): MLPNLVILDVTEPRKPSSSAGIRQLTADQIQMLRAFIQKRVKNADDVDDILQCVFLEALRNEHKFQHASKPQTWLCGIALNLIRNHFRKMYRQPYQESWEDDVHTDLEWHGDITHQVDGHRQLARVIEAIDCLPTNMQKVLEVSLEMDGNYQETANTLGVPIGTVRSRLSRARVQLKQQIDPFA

In turn, RNAP-His displayed a Kd in assay [1] of 7.75 µM. For GST tagged TrpR2 (natural protein), the Kd in assay [2] worked out at 2.41 µM.
